{"source": "patent US20260076602A1", "about": "“SYSTEM AND METHOD FOR RAPID ASSESSMENT OF RENAL FUNCTION” (Mayo Foundation for Medical Education and Research, priority 2018, published 2026)", "assay": "Normalized fluorescence from retinal vasculature following IV injection of fluorescent tracer agents (renal clearance)", "conditions": "period of 15 min after IV injection, FIG. 12A", "description": "Normalized fluorescence from retinal vasculature following sequential IV FITC-inulin (green) and Rhod-Dex (500 kD, red) using Phoenix Research Systems Micron imaging may be obtained. Traces synchronized to tail-vein injection (T=0 min). […] Inulin clearance based on traces of normalized fluorescence and previous calibration of Inulin/Rhod-Dex ratio in WT mouse whole blood (insert). Dashed black lines=exponential and linear (insert) curve fits to inulin concentration.\nAs an example, AK-Fluor®, a fluorescein-based substance, may be used as a first tracer agent that is substantially cleared by healthy renal function and emits a first fluorescent light when excited by a first excitation light. […] In some examples, a AK-Fluor® of 10^−7 g/ml is injected into the patient during an iGFR procedure. […] As shown, in addition to recording the fluorescence signals representing the fluorescent intensities of a first tracer agent and a second tracer agent, a decay rate of the first tracer agent may also be fitted to a first exponential order. […] As another example, FITC-inulin may also be used as a first tracer agent that is substantially cleared by healthy renal function and emits a first fluorescent light when excited by a first excitation light.", "data": [{"substance": "FITC-inulin", "values": [{"measurement": "fluorescence of tracer agent after injection (clearance by healthy renal function)", "result": "decrease over a period of 15 min after injection"}]}]}
